Measured values: patent US20250304666A1 (ALCHEMAB THERAPEUTICS, published 2025)

What was measured:
reduced CFH = target: T1, reduced CFH (Homo sapiens (Human), UniProt P08603 860-1231, limits assumed); experiment: direct ELISA on reduced CFH
T1 construct: also called CFH (reduced)
T1 sequence: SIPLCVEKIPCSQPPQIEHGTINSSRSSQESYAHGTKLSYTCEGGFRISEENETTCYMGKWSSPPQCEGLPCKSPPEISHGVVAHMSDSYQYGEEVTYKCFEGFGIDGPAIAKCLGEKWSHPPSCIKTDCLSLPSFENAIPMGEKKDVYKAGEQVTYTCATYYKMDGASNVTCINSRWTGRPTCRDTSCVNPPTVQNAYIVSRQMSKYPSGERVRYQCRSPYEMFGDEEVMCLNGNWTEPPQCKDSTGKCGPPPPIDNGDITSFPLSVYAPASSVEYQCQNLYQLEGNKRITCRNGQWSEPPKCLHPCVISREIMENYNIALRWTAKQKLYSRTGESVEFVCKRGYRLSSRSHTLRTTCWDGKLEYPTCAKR

non-reduced CFH = target: T2, non-reduced CFH; experiment: direct ELISA on non-reduced CFH
T2 construct: also called CFH (NON-REDUCED)
T2 chain: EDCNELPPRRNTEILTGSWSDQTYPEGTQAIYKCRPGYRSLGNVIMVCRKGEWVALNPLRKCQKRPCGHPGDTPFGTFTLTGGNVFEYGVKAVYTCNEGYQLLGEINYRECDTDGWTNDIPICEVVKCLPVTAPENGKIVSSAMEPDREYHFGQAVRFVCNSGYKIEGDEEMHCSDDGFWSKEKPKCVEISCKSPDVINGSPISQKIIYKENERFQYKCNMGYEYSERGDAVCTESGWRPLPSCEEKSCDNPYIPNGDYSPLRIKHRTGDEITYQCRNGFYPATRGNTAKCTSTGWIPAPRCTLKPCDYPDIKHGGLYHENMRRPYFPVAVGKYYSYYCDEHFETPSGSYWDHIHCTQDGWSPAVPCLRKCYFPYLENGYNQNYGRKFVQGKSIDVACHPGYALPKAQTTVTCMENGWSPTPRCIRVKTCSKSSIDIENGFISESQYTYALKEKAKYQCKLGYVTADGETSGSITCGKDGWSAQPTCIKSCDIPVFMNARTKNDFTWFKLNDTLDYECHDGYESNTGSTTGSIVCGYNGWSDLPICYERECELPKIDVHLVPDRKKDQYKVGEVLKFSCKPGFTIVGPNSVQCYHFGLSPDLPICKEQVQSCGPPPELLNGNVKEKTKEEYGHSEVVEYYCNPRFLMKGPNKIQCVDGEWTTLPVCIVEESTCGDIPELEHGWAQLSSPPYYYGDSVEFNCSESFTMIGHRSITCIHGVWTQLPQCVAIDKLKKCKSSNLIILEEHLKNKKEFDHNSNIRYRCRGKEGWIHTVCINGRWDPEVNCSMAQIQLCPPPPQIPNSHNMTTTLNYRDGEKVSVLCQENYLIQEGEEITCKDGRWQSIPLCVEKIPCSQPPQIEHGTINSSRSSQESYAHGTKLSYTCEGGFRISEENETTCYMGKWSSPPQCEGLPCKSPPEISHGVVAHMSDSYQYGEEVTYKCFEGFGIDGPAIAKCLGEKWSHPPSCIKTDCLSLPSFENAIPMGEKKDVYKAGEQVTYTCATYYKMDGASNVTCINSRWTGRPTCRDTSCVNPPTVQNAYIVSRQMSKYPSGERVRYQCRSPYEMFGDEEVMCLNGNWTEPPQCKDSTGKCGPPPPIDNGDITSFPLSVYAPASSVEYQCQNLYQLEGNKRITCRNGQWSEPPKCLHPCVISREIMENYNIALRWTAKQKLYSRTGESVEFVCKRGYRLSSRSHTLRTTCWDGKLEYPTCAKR

reduced CFHR3 = target: T3, reduced CFHR3 (UniProt Q02985 19-330, limits assumed); experiment: ELISA on reduced CFHR3
T3 sequence (looked up): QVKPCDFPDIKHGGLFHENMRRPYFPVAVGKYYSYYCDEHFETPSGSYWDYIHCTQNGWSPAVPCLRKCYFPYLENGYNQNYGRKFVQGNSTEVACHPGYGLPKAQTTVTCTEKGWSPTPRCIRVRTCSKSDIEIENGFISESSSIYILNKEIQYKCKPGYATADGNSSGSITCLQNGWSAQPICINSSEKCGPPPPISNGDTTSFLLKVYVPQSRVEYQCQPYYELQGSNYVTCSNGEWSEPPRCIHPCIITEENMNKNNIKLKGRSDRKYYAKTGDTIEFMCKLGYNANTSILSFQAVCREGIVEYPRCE

[1] = target: T4, immobilised biotinylated full-length CFH (reduced) (Homo sapiens (Human), UniProt P08603 19-1231, biotinylated; reduced with 20 mM dithiothreitol); experiment: BLI (Octet), biotinylated reduced CFH on streptavidin sensors, antibody 33.3-2.08 nM as analyte, 1:1 global fit; lower end of the printed KD range
T4 construct: Purified endogenous full-length CFH immobilised by biotin on streptavidin BLI sensors; also called immobilised CFH; surface immobilised CFH
Method: Biolayer interferometry (BLI, Octet 96Red) was used to measure binding kinetics of the interactions between anti-CFH antibodies and CFH. The CFH used for kinetics measurements was purified endogenous CFH was biotinylated and reduced with 20 mM dithiothreitol (DTT). An irrelevant protein was treated in the same way as a negative control reference. The CFH or irrelevant control ligands were each immobilised via the conjugated biotin onto a set of streptavidin (SA) sensor tips. Sensors were dipped into reference kinetics buffer (Phosphate buffered saline (PBS), pH 7.4, 0.05% Tween-20, 2% w/v not fat milk powder) to achieve a steady baseline. Association was measured over 300 s by dipping the sensors into an analyte concentration series of anti-CFH antibody (33.3-2.08 nM in kinetics buffer) as well as a no analyte control (kinetics buffer only). Dissociation was measured over 1500 s by dipping the sensors into kinetics buffer only. Baseline, association and dissociation steps were all measured with sensors shaking at 800 rpm and at a temperature of 23° C. Data was analysed with Data Analysis HT 11.1.0.25 software. Data from reference sensors and analyte control were subtracted. Data was corrected by aligning y-axis to average of baseline 5 s before association, inter step correction aligned to start of baseline and using Savitzky-Golay filtering. […]

B1: ATL4717 (antibody, human IgG1, kappa, V domains shown)
VH: QVQLVESGGGMVQPGRSLRLSCAASGFTFSIYGMHWVRQAPGRGLEWVAVMSFDGKTKYYADSVKGRFTISRDNSKNTLYLQMNSLRRVDTAVYYCAKGGATAAVFDSWGQGTLVTVSS
VL: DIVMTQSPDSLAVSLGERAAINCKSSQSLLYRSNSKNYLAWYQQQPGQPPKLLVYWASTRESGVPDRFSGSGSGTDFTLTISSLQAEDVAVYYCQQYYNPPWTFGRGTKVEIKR
notes: Human IgG1; also called ATL0004717; ATL04717
For B1, the “EC50 (read off the curve)” value (reduced CFH) was ~0.1 nM and the “EC50 (read off the curve)” value (non-reduced CFH) was ~0.2 nM.

B2: ATL5170 (antibody, human IgG1, kappa, V domains shown)
VH: QVQLVESGGGVVQPGRSLRLSCAASGFTFSNYGMHWVRQAPGKGLEWVAVTSFDGKTKYYADSVKGRFTISRDNSKNTLYLQMNSLRAEDTAVYYCAKGGATAAVLDSWGQGTLVTVSS
VL: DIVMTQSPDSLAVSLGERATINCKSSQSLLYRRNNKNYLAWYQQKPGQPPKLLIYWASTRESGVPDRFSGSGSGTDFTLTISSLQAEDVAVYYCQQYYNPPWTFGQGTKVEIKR
notes: IgG1; also called ATL_0005170
For B2, the binding result (reduced CFHR3) was “no binding (tested: 100 ug/ml)” and the Kd [1] was 0.402 to 1.46 nM.
